Numbering of substitutions follows the chain as printed. In names and notes the source's numbering stands.
B1: G144R (protein)
chain: MQLRNPELHLGCALALRFLALVSWDIPGARALDNGLARTPTMGWLHWERFMCNLDCQEEPDSCISEKLFMEMAELMVSEGWKDAGYEYLCIDDCWMAPQRDSEGRLQADPQRFPHGIRQLANYVHSKGLKLGIYADVGNKTCARFPGSFGYYDIDAQTFADWGVDLLKFDGCYCDSLENLADGYKHMSLALNRTGRSIVYSCEWPLYMWPFQKPNYTEIRQYCNHWRNFADIDDSWKSIKSILDWTSFNQERIVDVAGPGGWNDPDMLVIGNFGLSWNQQVTQMALWAIMAAPLFMSNDLRHISPQAKALLQDKDVIAINQDPLGKQGYQLRQGDNFEVWERPLSGLAWAVAMINRQEIGGPRSYTIAVASLGKGVACNPACFITQLLPVKRKLGFYEWTSRLRSHINPTGTVLLQLENTMQMSLKDLL
B2: S148T (protein)
chain: B1 chain with R144G, S148T
B3: Y152F (protein)
chain: B1 chain with R144G, Y152F
B4: P146T (protein)
chain: B1 chain with R144G, P146T
B5: F145V (protein)
chain: B1 chain with R144G, F145V
B6: P146L (protein)
chain: B1 chain with R144G, P146L
B7: S148C (protein)
chain: B1 chain with R144G, S148C
B8: G144S (protein)
chain: B1 chain with R144S
B9: F149C (protein)
chain: B1 chain with R144G, F149C
B10: F145C (protein)
chain: B1 chain with R144G, F145C

Test system: mutant form of α-Gal A expressed in HEK-293 cells
Assay: HEK assay (GLP HEK / Migalastat Amenability Assay): α-Gal A activity in lysates of transiently transfected HEK-293 cells incubated with or without 10 μM migalastat
Format: cell-based, human
Conditions: 10 μM migalastat versus baseline
Outline: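 HEK-293 cells transiently transfected with mutant α-Gal A and incubated with or without 10 μM migalastat; lysate activity given as nmol free 4-MU released per mg protein per hour. Values are mean±SEM.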

| Molecule | Absolute increase (% WT) |
| --- | --- |
| B1 | 37.7 |
| B2 | 15.9 |
| B3 | 11.4 |
| B4 | 25.0 |
| B5 | 5.7 |
| B6 | 12.4 |
| B7 | 19.3 |
| B8 | 30.4 |
| B9 | 13.9 |
| B10 | 25.7 |

Same assay, conditions: 10 μM migalastat α-Gal A activity relative to baseline

| Molecule | Relative increase |
| --- | --- |
| B1 | 2.0 |
| B2 | 1.2 |
| B3 | 1.3 |
| B4 | 1.8 |
| B6 | 1.5 |
| B7 | 1.6 |
| B8 | 1.6 |
| B9 | 1.3 |
| B10 | 14.4 |

Same assay, conditions: 10 μM migalastat, 5 days; percentage of baseline wild-type α-Gal A activity; mean ± SEM

| Molecule | 10 μM migalastat α-Gal A activity (% WT) |
| --- | --- |
| B1 | 73.4 ± 6.5 |
| B2 | 82.4 ± 3.7 |
| B3 | 56.8 ± 2.7 |
| B4 | 58.6 ± 2.4 |
| B5 | 5.7 ± 0.6 |
| B6 | 37.1 ± 2.2 |
| B7 | 49.5 ± 2 |
| B8 | 78 ± 5.6 |
| B9 | 60.9 ± 6.4 |
| B10 | 27.8 ± 0.8 |

Same assay, conditions: absence of migalastat; mean activity below the limit of detection (<142 nmol/mg/hr)

| Molecule | Baseline α-Gal A activity (nmol/mg/hr) |
| --- | --- |
| B5 | BLD (“BLD” indicates that the mean α-Gal A activity was below the limit of detection (<142 nmol/mg/hr)) |

Same assay, conditions: absence of migalastat; percentage of baseline wild-type α-Gal A activity; mean ± SEM

| Molecule | Baseline α-Gal A activity (% WT) |
| --- | --- |
| B1 | 35.7 ± 2.8 |
| B2 | 66.5 ± 3.8 |
| B3 | 45.4 ± 2.6 |
| B4 | 33.6 ± 1.5 |
| B6 | 24.7 ± 1.8 |
| B7 | 30.2 ± 2.2 |
| B8 | 47.6 ± 2.4 |
| B9 | 47 ± 4.4 |
| B10 | 2.1 ± 0.2 |

Same assay, conditions: lysates of HEK-293 cells transfected with the mutant form, incubated 5 days in the absence of migalastat; mean ± SEM

| Molecule | Baseline α-Gal A activity [nmol/mg/h] |
| --- | --- |
| B1 | 10574 ± 838 |
| B2 | 24827 ± 1221 |
| B3 | 18675 ± 907 |
| B4 | 13711 ± 1154 |
| B6 | 9940 ± 899 |
| B7 | 11927 ± 1020 |
| B8 | 14190 ± 967 |
| B9 | 15198 ± 1188 |
| B10 | 768 ± 54 |

Same assay, conditions: lysates of HEK-293 cells transfected with the mutant form, incubated 5 days with 10 μM migalastat; mean ± SEM

| Molecule | 10 μM migalastat α-Gal A activity [nmol/mg/h] |
| --- | --- |
| B1 | 21406 ± 1764 |
| B2 | 30620 ± 813 |
| B3 | 23612 ± 1095 |
| B4 | 24123 ± 2081 |
| B5 | 2359 ± 333 |
| B6 | 14540 ± 903 |
| B7 | 19343 ± 919 |
| B8 | 23153 ± 1847 |
| B9 | 19032 ± 1272 |
| B10 | 11083 ± 678 |

From patent publication US11833164B2, “Methods of treating Fabry disease in patients having a mutation in the GLA gene” (Amicus Therapeutics, Inc., priority 2019, dated 2023)
